Results from patent US20190127468A1.
“And” between values parts separate entries of the source, which are not always exact repeats. Identical values can stand only once. Values belong to the substance of their own block, whether it stands above or below them.

Legend:
[1] = target: human CTLA4 in cells of Ctla4 h/h knock-in mice (human) (UniProt P16410); assay: flow cytometry, intracellular staining of CTLA4 in spleen cells of Ctla4 h/h mice, gated on CD3+CD4+
[2] = target: mouse CTLA4 in cells of Ctla4 m/m (WT) mice (mouse) (UniProt P09793); assay: flow cytometry, intracellular staining of CTLA4 in spleen cells of Ctla4 m/m mice, gated on CD3+CD4+
[3] = target: mouse CTLA4-Fc fusion protein (mouse) (UniProt P09793); assay: blocking ELISA: plate B7-1, biotinylated mouse CTLA4-Fc with the antibody, HRP-streptavidin; blocked ligand B7-1
[4] = target: mouse CTLA4-Fc fusion protein (mouse) (UniProt P09793); assay: blocking ELISA: plate B7-2, biotinylated mouse CTLA4-Fc with the antibody, HRP-streptavidin; blocked ligand B7-2
[5] = target: Control IgG1-Fc (human) [IgG part: P01857]; assay: ELISA on coated target; binder 10 ng/ml
[6] = target: Control IgG1-Fc (human) [IgG part: P01857]; assay: ELISA on coated target; binder 100 ng/ml
[7] = target: Control IgG1-Fc (human) [IgG part: P01857]; assay: ELISA on coated target; binder 1000 ng/ml
[8] = target: Control IgG1-Fc (human) [IgG part: P01857]; assay: ELISA on coated target; binder 0 (background)
[9] = target: CTLA-4Fc mutant M11 (AA103-106, YLGI>fcGm) (human); assay: ELISA, plate-coated CTLA-4Fc protein, biotinylated B7-1 Ig at 1 ug/ml, HRP-streptavidin
CTLA-4Fc mutant M11 (AA103-106, YLGI>fcGm) (human), sequence (chain, as listed by the source mutant limits assumed): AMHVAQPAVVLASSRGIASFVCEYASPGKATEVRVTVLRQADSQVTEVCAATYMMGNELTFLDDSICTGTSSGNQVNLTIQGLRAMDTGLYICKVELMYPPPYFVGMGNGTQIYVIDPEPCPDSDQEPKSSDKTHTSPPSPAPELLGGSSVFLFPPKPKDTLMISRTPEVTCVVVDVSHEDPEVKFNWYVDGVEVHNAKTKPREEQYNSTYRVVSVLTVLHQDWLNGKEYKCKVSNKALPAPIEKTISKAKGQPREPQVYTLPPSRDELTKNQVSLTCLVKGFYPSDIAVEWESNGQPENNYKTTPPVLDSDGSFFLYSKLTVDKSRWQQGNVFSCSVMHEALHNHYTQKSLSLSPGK

[10] = target: CTLA-4Fc mutant M11 (AA103-106, YLGI>fcGm) (human); assay: ELISA, plate-coated CTLA-4Fc protein, biotinylated B7-1 Ig at 10 ng/ml, HRP-streptavidin
[11] = target: CTLA-4Fc mutant M11 (AA103-106, YLGI>fcGm) (human); assay: ELISA, plate-coated CTLA-4Fc protein, biotinylated B7-1 Ig at 0 (blank), HRP-streptavidin
[12] = target: CTLA-4Fc mutant M11 (AA103-106, YLGI>fcGm) (human); assay: ELISA, plate-coated CTLA-4Fc protein, biotinylated B7-1 Ig at 100 ng/ml, HRP-streptavidin
[13] = target: mouse CTLA4 in cells of Ctla4 m/m (WT) mice (mouse) (UniProt P09793); assay: cell-based or functional assay

human CTLA4 in cells of Ctla4 h/h knock-in mice (human), sequence (P16410 36-223): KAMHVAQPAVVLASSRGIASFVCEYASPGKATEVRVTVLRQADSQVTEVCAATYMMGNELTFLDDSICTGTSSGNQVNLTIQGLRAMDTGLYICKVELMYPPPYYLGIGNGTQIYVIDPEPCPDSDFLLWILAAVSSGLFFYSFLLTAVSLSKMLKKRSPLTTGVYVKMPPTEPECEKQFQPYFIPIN
anti-mouse CTLA4 mAb 9D9 (antibody), sequence (light): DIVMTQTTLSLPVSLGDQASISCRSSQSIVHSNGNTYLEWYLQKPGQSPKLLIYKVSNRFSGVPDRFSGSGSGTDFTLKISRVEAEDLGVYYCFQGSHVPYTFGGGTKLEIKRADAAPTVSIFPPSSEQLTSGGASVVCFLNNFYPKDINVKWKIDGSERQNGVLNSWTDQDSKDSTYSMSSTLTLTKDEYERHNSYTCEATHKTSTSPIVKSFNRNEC
anti-mouse CTLA4 mAb 9D9 (antibody), sequence (heavy): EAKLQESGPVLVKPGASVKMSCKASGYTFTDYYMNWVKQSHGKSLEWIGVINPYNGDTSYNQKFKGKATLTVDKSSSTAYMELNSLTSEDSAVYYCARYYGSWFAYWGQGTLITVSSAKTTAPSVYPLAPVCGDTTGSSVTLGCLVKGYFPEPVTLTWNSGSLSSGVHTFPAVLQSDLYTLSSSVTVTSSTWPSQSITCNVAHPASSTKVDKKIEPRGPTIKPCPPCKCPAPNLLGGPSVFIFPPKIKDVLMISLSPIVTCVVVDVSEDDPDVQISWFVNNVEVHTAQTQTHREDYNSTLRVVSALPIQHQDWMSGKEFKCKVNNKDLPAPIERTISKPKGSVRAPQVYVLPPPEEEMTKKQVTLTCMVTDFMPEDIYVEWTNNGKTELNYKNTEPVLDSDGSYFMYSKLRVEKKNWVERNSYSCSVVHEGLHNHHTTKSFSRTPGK

number over the gate (FoxP3-positive, 4F10-stained) among CD3+CD4+ splenocytes [1]: 0.107 | number over the gate (FoxP3-positive, 4F10-stained) among CD3+CD4+ splenocytes [2]: 9.52 | IC50 (read off the curve) [3]: 1 µg/mL | IC50 (read off the curve) [4]: 0.3 µg/mL
Substance: anti-mouse CTLA4 mAb 4F10 (antibody)

OD450 [5]: 0.201 OD and 0.182 OD | OD450 [6]: 0.315 OD and 0.326 OD | OD450 [7]: 1.39 OD and 1.48 OD | OD450 [8]: 0.198 OD and 0.184 OD
Substance: chimeric L3D10 antibody

OD450 [9]: 3.05 OD450 and 3.16 OD450 | OD450 [10]: 0.22 OD450 and 0.217 OD450 | OD450 [11]: 0.174 OD450 and 0.163 OD450 | OD450 [12]: 0.884 OD450 and 1.04 OD450
Substance: human B7-1 Fc fusion protein (from UniProt P33681 35-242)

B7-1 level on CD11c hi DC of WT mice 24 h after 500 µg antibody [13]: 15%
Substance: anti-mouse CTLA4 mAb 9D9 (antibody)
